Experimental data: the RNAGym collection of RNA variant scans (doi:10.1073/pnas.2313332121)

B1: TPR t1 (parent)
chain: GACCAAUCUGCCCUCAGAGCUCGAGAACAUCUUCGGAUGCAGAGGAGGCAGGCUUCGGUGGCGCGAUAGCGCCAACGUCCUCAACCUCCAAUGCAUCCCACCACAUGAUGAUGCCUGAAGAGCCUUGGUUUUUUG

Variants of: B1
Experiment: polymerase ribozyme fitness, log enrichment relative to wild type (log ratio); higher = more active; in vitro selection for triplet polymerase activity
In short: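 Mutant libraries of both subunits of a heterodimeric triplet polymerase ribozyme were PCR-built, transcribed, and selected once in triplicate, with frozen incubation at −7 °C and capture of gel-excised extended constructs on streptavidin beads before RT-PCR. Illumina sequencing of input and output libraries was filtered to genotypes with ≥10 input reads and ≥1 read per output. Fitness is the logarithm of genotype enrichment over wild-type enrichment, using inverse-variance-weighted replicate averages. The logarithm is base 2.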

For GACCAAUCUGCCCUCAGAGCUCGAGAACAUCUUCGGGUGCAGUGGAUGCAGGCUUCGGUGGCGCGAUAGCGCCAACGUCCUCAACCUCCAAUGCAUCCCAGCACAUGAUGAUGCCUGAAGAGCCUUGGUUUUUUG [A37G A43U G47U C101G], which “polymerase ribozyme fitness (log ratio)” value is on record?
The value was -4.64.

Which “polymerase ribozyme fitness (log ratio)” value does the source give for GACCAAUCUGCCCUCAGAGCUCGAGAACAUCUUCGGCUGCAGAGGAGGCAGGCUUCGGUGGCGCGAUAGCGCCAACGUCCUCAACCUCCAAUGCAGCCCACCACAUGAUGAUGCCUGAAGAGCCUUGGUUUUUUG [A37C U96G] here?
The value was 0.787.

Which “polymerase ribozyme fitness (log ratio)” value does the source give for GACCAAUCUGCCCUCAGAGCUCGAGAACAUCUUCGGCUGCAGAGGAGGCAGGCUUCUGUGGCGCGAUGGCGCCAACGUCCUCAACCUCCAAUGCAUCCCACCACAUGAUGAUGCCUGAAGAGCCUUGGUUUUUUG [A37C G57U A68G] here?
Its value is -3.57.

With GACCAAUCUGCCCUCAGAGCUCGAGAACAUCUUCGGCUGCAGAGGAGGCAGGCUUCGGUGGCGCGAUAGCGUCAACGUCCUCAACCUCCAAUGCAUCCCACCACAUGAUGAUGCCUGAAGAGCCUUGGUUUUUUG [A37C C72U] as the variant, how does the “polymerase ribozyme fitness (log ratio)” value read?
The value was 0.162.

For GACCAAUCUGCCCUCAGAGCUCGAGAACAUCUUCGGCUGCAGAGUAGGCAUGCUUCGGUGGCGCGAUAGCGCUAACGUCCUCAACCUCCAAUGCAUCCCACCACAUGAUGAUGCCUGAAGAGCGUUGGUUUUUUG [A37C G45U G51U C73U C124G], which “polymerase ribozyme fitness (log ratio)” value is on record?
The value was -3.87.

For GACCAAUCUGCCCUCAGAGCUCGAGAACAUCUUCGGCUGCAGAGGAGGCAGGCUUCGGUGGCGCGAUAGCGCCAACGUCCUCAACCUCCAAUGCAUUCCACCACAUGAUGAUGCCUGAAGAGCCUUGGUUUUUUG [A37C C97U], which “polymerase ribozyme fitness (log ratio)” value is on record?
The value was -1.69.

For GACCAAUCUGCCCUCAGAGCUCGAGAACAUCUUCGGCUGCAGAGGAGGCAGGCUUCGGUGGCUCGAUAGCGCCAACGUCCUCAACCUCCAAUGCAUCCCACCACAUGAUGAUGCCUGAAGAGCCUUGGUUUUUUG [A37C G63U], which “polymerase ribozyme fitness (log ratio)” value is on record?
The value was -1.28.

For GACCAAUCUGCCCUCAGAGCUCGAGAACAUCUUCGGCUGCAGAGGAGGCAGGCUUCGGUGGCGCGAUAGCGCCAACGUCCUCAACCUCCAAUGCAUCCCACCACAUGAUGAUGCCUGAAGAGACUUGGUUUUUUG [A37C C123A], which “polymerase ribozyme fitness (log ratio)” value is on record?
The value was -0.297.

With GACCAAUCUGCCCUCAGAGCUCGAGAACAUCUUCGGCUGCAGAGGAGGCAGGCUUCGGUGGCGCGAUAGCGCCAACGUCCUCAACCUCCAAUGCAUCCCACCACAUGAUGAUGCCUGAAAAACCUUGGUUUUUUG [A37C G120A G122A] as the variant, how does the “polymerase ribozyme fitness (log ratio)” value read?
Its value is -1.07.

With GACCAAUCUGCCCUCAGAGCUCGAGAACAUCUUCGGCUGCAGAGCAGGCAGGCUUCGGUGGCGCGAUAGCGCCAACGUCCUCAACCUCCAAUGCAUCCCACCACAUGAUGGUGCCUGAAGAGCUUUGGUUUUUUG [A37C G45C A111G C124U] as the variant, how does the “polymerase ribozyme fitness (log ratio)” value read?
The value was -2.52.

With GACCAAUCUGCCCUCAGAGCUCGAGAACAUCUUCGGCUGCAGAGGAGGCAGGCUUCGGUGGCGCGAUAGCGCCAACGUCCUCAACCUCUAAUGCAUCCCACCACAUGAUGAUGCGUGAAGAGCCUUGGUUUUUUG [A37C C89U C115G] as the variant, how does the “polymerase ribozyme fitness (log ratio)” value read?
The value was -3.26.

With GACCAAUCUGCCCUCAGAGCUCGAGAACAUCUUCGGCUGCAAUGGAGGUAGGGUCCGGUGGCGCGAUAGCGCCAACGUCCUCAACCUCCAAUGCAUCCCACCACAUGAUGAUGCCUGAAGAGCCUUGGUUUUUUG [A37C G42A A43U C49U C53G U55C] as the variant, how does the “polymerase ribozyme fitness (log ratio)” value read?
The value was -4.27.

For GACCAAUCUGCCCUCAGAGCUCGAGAACAUCUUCGGCUCCAGAGGAGGCAGGCUUCGGUGGCACGAUAGCGCCAACGUCCUCAACCUCCAAUGCAUCCCACCACAUGAUGAUGCCUGAAGAGCCUUGGUUUUUUG [A37C G39C G63A], which “polymerase ribozyme fitness (log ratio)” value is on record?
The value was -4.27.

With GACCAAUCUGCCCUCAGAGCUCGAGAACAUCUUCGGCUGCAGAGGAGGCAGCCUUCGGUAGCGCGAUAGCGCCAACGUCCUCAACUUCCAAUGCAUCCCACCACAUGAUGAUGCCUGAAGAGCCUUGGUUUUUUG [A37C G52C G60A C86U] as the variant, how does the “polymerase ribozyme fitness (log ratio)” value read?
The value was -2.95.

Which “polymerase ribozyme fitness (log ratio)” value does the source give for GACCAAUCUGCCCUCAGAGCUCGAGAACAUCUUCGGCUGCAGAGGAGGCAGACUUCGGUGGCGCGAUAGCGCCAACGUCCUCCACCUCCAAUGCAUCCCACCACAUGAUGAUGCCCGAAGAGCCUUGGUUUUUUG [A37C G52A A83C U116C] here?
Its value is -2.17.

Which “polymerase ribozyme fitness (log ratio)” value does the source give for GACCAAUCUGCCCUCAGAGCUCGAGAACAUCUUCGGCUGCAGAGGAGGCAGGCUUCGGUGGCGCGAUAGCGCCAAAGUCCUCAACCUCCAAUGCAUCCCACCACAUGAUGAUGCCUGAAGAGCCUUGGUUUUUUG [A37C C76A] here?
Its value is -1.6.

With GACCAAUCUGCCCUCAGAGCUCGAGAACAUCUUCGGCUGCAAUGGAGGCAGGCUUCGGUGGCGCGAUAGCGCCAACGUCCUCAACCUCCAAUGCAUCCCACCAAAUGAUGAUGCCUGAAGAGCCUUGGUUUUUUG [A37C G42A A43U C104A] as the variant, how does the “polymerase ribozyme fitness (log ratio)” value read?
Its value is -5.34.

Which “polymerase ribozyme fitness (log ratio)” value does the source give for GACCAAUCUGCCCUCAGAGCUCGAGAACAUCUUCGGCUGCAGAGCAGGCAGGCUUCGGUGGCGCGAUAGCCCCAACGUCCUCAACCUCCAAUGCAUCCCACCACAUGAUGAUGCCUGAAGAGCCUUGGUGCUUUU [A37C G45C G71C U130G U131C G135U] here?
The value was -3.26.

With GACCAAUCUGCCCUCAGAGCUCGAGAACAUCUUCGGCUGCAGAGGAGGCAGGCUUCGGUGGCGCGAUAGCGCCAACGUCCUCAACCUCCAAUGCAUCCCACCACAUAAUGAUGCCUGAAGAGACUUGGUUUUUUG [A37C G107A C123A] as the variant, how does the “polymerase ribozyme fitness (log ratio)” value read?
The value was -5.8.

For GACCAAUCUGCCCUCAGAGCUCGAGAACAUCUUCGGCUGCAGAGGAGGCAGGCUUCGGUGGCGCGAUAGCGCCAACGUCCUCAACCUCCAAUGCAUCCCACCACAUGAUCAUGCCUGAAGAGCAUUGGUUUUAUG [A37C G110C C124A U133A], which “polymerase ribozyme fitness (log ratio)” value is on record?
The value was -3.68.

With GACCAAUCUGCCCUCAGAGCUCGAGAACAUCUUCGGCUGCAGAGGAGGCAGGCUUCGGUGGCGCGAUAGCGCCAACGUCCUCAACCUCCAAUGCAUCCCACAACAUGAUGAUGCCUGAAGAGCCUUGGUUUUUUG [A37C C102A] as the variant, how does the “polymerase ribozyme fitness (log ratio)” value read?
The value was -2.31.
